# Results taken from patent US20240408138A1 (UNIVERSITY OF CHICAGO, published 2024).
# T1: INCENP N-terminal domain (1-58), His- and Avi-tagged, biotinylated (UniProt Q9NQS7 1-58, biotinylated (Avi-tag, co-expressed E. coli biotin ligase BirA))
# T1 construct: range 1-58; Expressed in E. coli BL21(DE3); also called INC-N; INCENP N-terminal domain (AA 1-58); not shown: His-tag and Avi-tag
# T1 sequence (looked up): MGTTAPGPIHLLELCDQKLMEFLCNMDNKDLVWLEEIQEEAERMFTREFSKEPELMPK
# T2: INCENP on the surface of murine tumor cells (Mus musculus, UniProt Q9WU62)
# T2 construct: kept apart from m4 because the cells are murine; also called cell surface INCENP on CT26, MC38 and 4T1 cells
# T2 sequence (single chain, looked up): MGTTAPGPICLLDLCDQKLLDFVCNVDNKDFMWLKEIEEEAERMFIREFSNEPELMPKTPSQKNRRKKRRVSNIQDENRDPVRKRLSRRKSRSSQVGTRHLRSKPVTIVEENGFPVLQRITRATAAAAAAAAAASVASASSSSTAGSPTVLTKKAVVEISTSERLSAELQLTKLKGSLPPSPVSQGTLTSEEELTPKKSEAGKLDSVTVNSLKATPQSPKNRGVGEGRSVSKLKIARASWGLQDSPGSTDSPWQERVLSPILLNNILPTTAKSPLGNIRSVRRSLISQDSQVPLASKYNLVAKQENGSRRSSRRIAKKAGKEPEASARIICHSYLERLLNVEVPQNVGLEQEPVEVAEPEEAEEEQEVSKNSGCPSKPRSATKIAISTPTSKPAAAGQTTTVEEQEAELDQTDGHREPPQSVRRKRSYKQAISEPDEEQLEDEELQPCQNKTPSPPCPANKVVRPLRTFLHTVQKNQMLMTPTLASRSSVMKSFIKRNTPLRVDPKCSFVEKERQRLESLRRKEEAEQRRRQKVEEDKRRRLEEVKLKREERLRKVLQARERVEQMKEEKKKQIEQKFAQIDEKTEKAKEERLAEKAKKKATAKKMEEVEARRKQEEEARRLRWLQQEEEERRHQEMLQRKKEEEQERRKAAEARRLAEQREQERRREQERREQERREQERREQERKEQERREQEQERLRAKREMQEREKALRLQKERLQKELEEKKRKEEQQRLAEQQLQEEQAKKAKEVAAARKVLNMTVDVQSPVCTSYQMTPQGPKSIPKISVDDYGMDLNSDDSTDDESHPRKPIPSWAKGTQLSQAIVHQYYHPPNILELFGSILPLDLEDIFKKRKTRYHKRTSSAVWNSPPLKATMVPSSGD
# Assays:
# [1] = biological target: T1, INCENP N-terminal domain (1-58), His- …; experiment: single-point protein ELISA, 200 nM Fab on 50 nM immobilised biotinylated target, protein L-HRP, A450
# Protocol: To rapidly reconfirm the binding and specificity of the obtained Fabs after reformatting into the expression vectors single-point Fab ELISA was performed (FIG. 2). Briefly, 50 nM Avi-tagged targets were immobilized on the prepared NAV-coated and blocked with 0.5% BSA in PBS 96-well ELISA plates. The target coated plates were washed with appropriate buffer (TBST or PBST) and were incubated with 200 nM Fab for 20 minutes and then washed. The washed plates were incubated with protein L conjugated with HRP (1:5000 diluted in TBST) for 30 minutes. Plates were washed and the reaction was developed using the TMB chromogenic substrate (Thermofisher) and subsequently quenched with 1M HCl. Absorbance was read at 450 nm on Epoch plate reader.
# [2] = biological target: T1, INCENP N-terminal domain (1-58), His- …; experiment: SPR, target immobilised on NTA chip via His-tag, two-fold Fab dilutions from 100 nM, 1:1 Langmuir fit
# Protocol: The targets were immobilized onto a nitrilotriacetic acid (NTA) sensor chip via His-tag. 2-fold serial dilutions of the Fab were injected following ligand immobilization on the sensor chip. For each kinetic assay at least five dilutions of the Fab were tested. The data were fitted using 1:1 Langmuir Model to obtain the on-rate, off-rate and the affinity (KD) of the Fab-target interaction. (FIG. 3).
# [3] = biological target: T3, INCENP displayed on the surface of cancer cells (UniProt Q9NQS7 1-918, limits assumed); experiment: flow cytometry, 200 nM Fab on MDA-231 breast cancer cells, anti-human F(ab')2-A647 secondary, MFI
# T3 construct: whole, on cells; The sentence says 'various cancer cell lines'; also called cell surface INCENP
# Protocol: (§1) Human or murine tumor cells were trypsinized, washed and resuspended in Flow buffer (1×PBS supplemented with 2% FBS) and added to a 96-well plate (#3799, Costar). 200 nM primary CPC Fab was mixed with 0.5M cells and incubated at 37 C for 20 min. Cells were washed with Flow buffer and stained with anti-human-FAB′2-A647 secondary antibody (#109-605-006, Jackson, 1:200) for 20 min at room temperature and washed again. Samples were analyzed by flow cytometry using CytoFLEX (Beckman Coulter) and mean fluorescence intensity (MFI) data was extracted using the FlowJo software (FIG. 4A-E, FIG. 5). Human peripheral blood mononuclear cells (PBMCs) derived from a single patient were used as a source of healthy human cells. PBMCs were counted, split and spun down 400×g 5 min. Cells were resuspended in Flow buffer (1×PBS supplemented with 2% FBS) and pre-incubated with TruStain FcX (1:20, Biolegend 422302) for 10 min at 37 C, followed by 200 nM primary Fab incubation at 37 for 20 min. Cells were washed twice and stained with secondary antibody (Alexa Fluor 647 AffiniPure Goat Anti-Human IgG, F(ab′)2 fragment specific, #109-605-006, Jackson, 1:200), for 20 min at RT, washed twice and analyzed by using CytoFLEX (Beckman Coulter). Mean fluorescence intensity (MFI) data was extracted using the FlowJo software (FIG. 4F).
# [4] = biological target: T3, INCENP displayed on the surface of …; experiment: flow cytometry, 200 nM Fab on MCF7 breast cancer cells, anti-human F(ab')2-A647 secondary, MFI
# Protocol: as §1
# [5] = biological target: T2, INCENP on the surface of murine tumor …; experiment: flow cytometry, 200 nM Fab on CT26 murine colorectal carcinoma cells, anti-human F(ab')2-A647 secondary, MFI [CT26]
# Protocol: as §1
Binder,binding result [1],Kd [2] [nM],koff [2] [s⁻¹],kon [2] [M⁻¹ s⁻¹],also measured
"INC-N-01 (Fab, V domains shown, also called INC-N-01 Fab) VH: EVQLVESGGGLVQPGGSLRLSCAASGFNVYYYSIHWVRQAPGKGLEWVASIYPSSGSTYYADSVKGRFTISADTSKNTAYLQMNSLRAEDTAVYYCARQWLYMLWPMWGLDYWGQGTLVTVSS VL: DIQMTQSPSSLSASVGDRVTITCRASQSVSSAVAWYQQKPGKAPKLLIYSASSLYSGVPSRFSGSRSGTDFTLTISSLQPEDFATYYCQQSYYWPITFGQGTKVEIKR",binds,,,,
"INC-N-13 (Fab, V domains shown, also called INC-N-13 Fab) VH: EVQLVESGGGLVQPGGSLRLSCAASGFNVSYYSIHWVRQAPGKGLEWVASIYPYSGSTYYADSVKGRFTISADTSKNTAYLQMNSLRAEDTAVYYCARYPYYVYWYYWWYYALDYWGQGTLVTVSS VL: DIQMTQSPSSLSASVGDRVTITCRASQSVSSAVAWYQQKPGKAPKLLIYSASSLYSGVPSRFSGSRSGTDFTLTISSLQPEDFATYYCQQSWSYPITFGQGTKVEIKR",,20,0.0029,140000,
"INC-N-11 (Fab, V domains shown, also called INC-N-11 Fab) VH: EVQLVESGGGLVQPGGSLRLSCAASGFNVSYYSIHWVRQAPGKGLEWVASIYPSSGSTYYADSVKGRFTISADTSKNTAYLQMNSLRAEDTAVYYCARMYPSWMLYPYYMFAGMDYWGQGTLVTVSS VL: DIQMTQSPSSLSASVGDRVTITCRASQSVSSAVAWYQQKPGKAPKLLIYSASSLYSGVPSRFSGSRSGTDFTLTISSLQPEDFATYYCQQRWVYPITFGQGTKVEIKR",,4.2,0.0031,740000,
"INC-N-04 (Fab, V domains shown, also called INC-N-04 Fab) VH: EVQLVESGGGLVQPGGSLRLSCAASGFNFYSYSIHWVRQAPGKGLEWVASIYSYSGYTYYADSVKGRFTISADTSKNTAYLQMNSLRAEDTAVYYCARYPLYFQYRKYYGIDYWGQGTLVTVSS VL: DIQMTQSPSSLSASVGDRVTITCRASQSVSSAVAWYQQKPGKAPKLLIYSASSLYSGVPSRFSGSRSGTDFTLTISSLQPEDFATYYCQQGWYYPITFGQGTKVEIKR",,14.8,0.011,760000,
"INC-N-38 (Fab, V domains shown, also called INC-N-38 Fab) VH: EVQLVESGGGLVQPGGSLRLSCAASGFNVYSSSIHWVRQAPGKGLEWVAYISSYSGYTYYADSVKGRFTISADTSKNTAYLQMNSLRAEDTAVYYCARTIYSSSYFYTWFIYGAAFDYWGQGTLVTVSS VL: DIQMTQSPSSLSASVGDRVTITCRASQSVSSAVAWYQQKPGKAPKLLIYSASSLYSGVPSRFSGSRSGTDFTLTISSLQPEDFATYYCQQSWMYPITFGQGTKVEIKR",,1.2,0.0005,420000,
"INC-N-06 (Fab, V domains shown, also called INC-N-06 Fab) VH: EVQLVESGGGLVQPGGSLRLSCAASGFNISYSSIHWVRQAPGKGLEWVASIYPYSGSTYYADSVKGRFTISADTSKNTAYLQMNSLRAEDTAVYYCARWSLYGKWYYWWYGLDYWGQGTLVTVSS VL: DIQMTQSPSSLSASVGDRVTITCRASQSVSSAVAWYQQKPGKAPKLLIYSASSLYSGVPSRFSGSRSGTDFTLTISSLQPEDFATYYCQQGSYYPITFGQGTKVEIKR",,6.3,0.0049,770000,binding result [5]: binds

# Further lines, with some results ahead:
binding result [1],Kd [2] [nM],koff [2] [s⁻¹],kon [2] [M⁻¹ s⁻¹],Binder,also measured
binds,,,,"INC-N-08 (Fab, V domains shown, also called INC-N-08 Fab) VH: EVQLVESGGGLVQPGGSLRLSCAASGFNFSSSSIHWVRQAPGKGLEWVASIYSYYGSTSYADSVKGRFTISADTSKNTAYLQMNSLRAEDTAVYYCARWMYKGYIFYQYFGLDYWGQGTLVTVSS VL: DIQMTQSPSSLSASVGDRVTITCRASQSVSSAVAWYQQKPGKAPKLLIYSASSLYSGVPSRFSGSRSGTDFTLTISSLQPEDFATYYCQQSFSNLITFGQGTKVEIKR",
binds,,,,"INC-N-35 (Fab, V domains shown, also called INC-N-35 Fab) VH: EVQLVESGGGLVQPGGSLRLSCAASGFNFYSYSIHWVRQAPGKGLEWVASISSSSGSTSYADSVKGRFTISADTSKNTAYLQMNSLRAEDTAVYYCARHFHNPYSWDYWYGWYTALDYWGQGTLVTVSS VL: DIQMTQSPSSLSASVGDRVTITCRASQSVSSAVAWYQQKPGKAPKLLIYSASSLYSGVPSRFSGSRSGTDFTLTISSLQPEDFATYYCQQSSSSLITFGQGTKVEIKR",binding result [3]: binds
binds,,,,"INC-N-34 (Fab, V domains shown, also called INC-N-34 Fab) VH: EVQLVESGGGLVQPGGSLRLSCAASGFNVSSSSIHWVRQAPGKGLEWVASIYPSSGYTSYADSVKGRFTISADTSKNTAYLQMNSLRAEDTAVYYCARKLAYYWGAQWSYSGYKGMDYWGQGTLVTVSS VL: DIQMTQSPSSLSASVGDRVTITCRASQSVSSAVAWYQQKPGKAPKLLIYSASSLYSGVPSRFSGSRSGTDFTLTISSLQPEDFATYYCQQSYWYPITFGQGTKVEIKR",binding result [4]: binds
binds,,,,"INC-N-14 (Fab, V domains shown, light chain shared with INC-N-18; also called INC-N-14 Fab) VH: EVQLVESGGGLVQPGGSLRLSCAASGFNVSSYSIHWVRQAPGKGLEWVASIYPSSGSTYYADSVKGRFTISADTSKNTAYLQMNSLRAEDTAVYYCARKGYGWFYYYIEWYSPYAFDYWGQGTLVTVSS VL: DIQMTQSPSSLSASVGDRVTITCRASQSVSSAVAWYQQKPGKAPKLLIYSASSLYSGVPSRFSGSRSGTDFTLTISSLQPEDFATYYCQQSYYYPVTFGQGTKVEIKR",
binds,,,,"INC-N-12 (Fab, V domains shown, also called INC-N-12 Fab) VH: EVQLVESGGGLVQPGGSLRLSCAASGFNFSSSSIHWVRQAPGKGLEWVASIYSYSGSTYYADSVKGRFTISADTSKNTAYLQMNSLRAEDTAVYYCARYHWYYYWYWGGVSPAMDYWGQGTLVTVSS VL: DIQMTQSPSSLSASVGDRVTITCRASQSVSSAVAWYQQKPGKAPKLLIYSASSLYSGVPSRFSGSRSGTDFTLTISSLQPEDFATYYCQQMRYYPITFGQGTKVEIKR",
binds,,,,"INC-N-19 (Fab, V domains shown, also called INC-N-19 Fab) VH: EVQLVESGGGLVQPGGSLRLSCAASGFNVYYSYIHWVRQAPGKGLEWVASIYPYSGYTSYADSVKGRFTISADTSKNTAYLQMNSLRAEDTAVYYCARWRWPGLQFGYGMDYWGQGTLVTVSS VL: DIQMTQSPSSLSASVGDRVTITCRASQSVSSAVAWYQQKPGKAPKLLIYSASSLYSGVPSRFSGSRSGTDFTLTISSLQPEDFATYYCQQSYWWPLTFGQGTKVEIKR",
